Data published in paper PMC10293821.

Key:
[1] = target: apo recombinant HRPII mutant with a 4 amino acid C terminus truncation (P. falciparum); experiment: AUC
[2] = target: histidine-rich protein II (HRPII) purified from conditioned media of cultured P. falciparum (P. falciparum strain 3D7); experiment: AUC

| Substance | stoichiometry N [1] | stoichiometry N [2] |
| --- | --- | --- |
| apo recombinant HRPII mutant with a 4 amino acid C terminus truncation (domain or fragment) | 3 |  |
| histidine-rich protein II (HRPII) purified from conditioned media of cultured P. falciparum (natural protein) |  | 14 |
